Measurements taken from patent US20260184782A1 (TWIST BIOSCIENCE, published 2026).

T1: recombinant human TIGIT (human, UniProt Q495A1 22-141, limits assumed)
T1 construct: recombinant human TIGIT used in Carterra SPR; also called hTIGIT
T1 sequence (looked up): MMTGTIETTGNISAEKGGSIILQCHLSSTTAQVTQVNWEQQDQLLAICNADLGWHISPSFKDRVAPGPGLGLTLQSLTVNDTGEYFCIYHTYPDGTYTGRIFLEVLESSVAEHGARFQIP


What follows are binders tested against T1, recombinant human TIGIT (assay: SPR Carterra, average).
Method: Binding affinities of VHH-Fc proteins to recombinant human TIGIT were measured by SPR using a Carterra instrument (Table 10A). […] Average values reported from measurements from 1-2 samples.

Row | Binder | Kd [nM] | koff [s⁻¹] | kon [M⁻¹ s⁻¹]
1 | TIGIT-SC20 (Fc fusion, VHH-Fc fusion in assay) VHH: EVQLVESGGGLVQPGGSLRLSCAASGNTFSGGFMGWFRQAPGKEREWVASVLRGGYTWYADSVKGRFTISADNSKNTAYLQMNSLKPEDTAVYYCATPRGYWGQGTLVTVSS | 2.7 | 0.0007 | 260000
2 | TIGIT-SC46 (Fc fusion, VHH-Fc fusion in assay) VHH: EVQLVESGGGLVQPGGSLRLSCAASGRTFSNYVMGWFRQAPGKERELVASISSFGSTYYADSVKGRFTISADNSKNTAYLQMNSLKPEDTAVYYCARSGGFLSDWGQGTLVTVSS | 4.45 | 0.00416 | 1.01e+06
3 | TIGIT-SC54 (Fc fusion, VHH-Fc fusion in assay) VHH: EVQLVESGGGLVQPGGSLRLSCAASGFSFDDYVMGWFRQAPGKERELVAVIVGEAITRYADSVKGRFTISADNSKNTAYLQMNSLKPEDTAVYYCARRGGSGRAFDIWGQGTLVTVSS | 3.71 | 0.00982 | 3e+06
4 | TIGIT-SC169 (Fc fusion, VHH-Fc fusion in assay) VHH: EVQLVESGGGLVQPGGSLRLSCAASGFTLNDYAMGWFRQAPGKERELVAWIARYDGSTLYADSVKGRFTISADNSKNTAYLQMNSLKPEDTAVYYCTTELRWELQQPDYWGQGTLVTVSS | 978 | 0.206 | 211000
5 | TIGIT-SC24 (Fc fusion, VHH-Fc fusion in assay) VHH: EVQLVESGGGLVQPGGSLRLSCAASGFTFDRSWMGWFRQAPGKEREVVASITSGGSTYYADSVKGRFTISADNSKNTAYLQMNSLKPEDTAVYYCAADVWYGSTWRNWGQGTLVTVSS | 3.08 | 0.000894 | 506000
6 | TIGIT-SC31 (Fc fusion, VHH-Fc fusion in assay) VHH: EVQLVESGGGLVQPGGSLRLSCAASGRAFESYAMGWFRQAPGKERELVATIGWSGTDYADSVKGRFTISADNSKNTAYLQMNSLKPEDTAVYYCAKGYTSGLSDWGQGTLVTVSS | 4.74 | 0.0062 | 1.31e+06
7 | TIGIT-SC121 (Fc fusion, VHH-Fc fusion in assay) VHH: EVQLVESGGGLVQPGGSLRLSCAASGFTFSPSWMGWFRQAPGKEREWVASVLRGGYTWYADSVKGRFTISADNSKNTAYLQMNSLKPEDTAVYYCTTEGFDPWGQGTLVTVSS | 4.68 | 0.00112 | 344000
8 | TIGIT-SC187 (Fc fusion, VHH-Fc fusion in assay) VHH: EVQLVESGGGLVQPGGSLRLSCAASGFTFSPSWMGWFRQAPGKEREWVASVLRGGYTWYADSVKGRFTISADNSKNTAYLQMNSLKPEDTAVYYCTTDSLPGWGQGTLVTVSS | 17.2 | 0.000586 | 34000
9 | TIGIT-SC111 (Fc fusion, VHH-Fc fusion in assay) VHH: EVQLVESGGGLVQPGGSLRLSCAASGDTFSGGFMGWFRQAPGKEREWVASVLRGGYTWYADSVKGRFTISADNSKNTAYLQMNSLKPEDTAVYYCTRGGMDVWGQGTLVTVSS | 4.37 | 0.00743 | 1.7e+06
10 | TIGIT-SC60 (Fc fusion, VHH-Fc fusion in assay) VHH: EVQLVESGGGLVQPGGSLRLSCAASGFTFSPSWMGWFRQAPGKEREWVASVLRGGYTWYADSVKGRFTISADNSKNTAYLQMNSLKPEDTAVYYCARDDLDYWGQGTLVTVSS | 84.6 | 0.00184 | 21800
11 | TIGIT-SC98 (Fc fusion, VHH-Fc fusion in assay) VHH: EVQLVESGGGLVQPGGSLRLSCAASGNTFSGGFMGWFRQAPGKEREWVASVLRGGYTWYADSVKGRFTISADNSKNTAYLQMNSLKPEDTAVYYCTTEGFDPWGQGTLVTVSS | 5.79 | 0.00137 | 237000
12 | TIGIT-SC188 (Fc fusion, VHH-Fc fusion in assay) VHH: EVQLVESGGGLVQPGGSLRLSCAASGNTFSGGFMGWFRQAPGKEREWVASVLRGGYTWYADSVKGRFTISADNSKNTAYLQMNSLKPEDTAVYYCTTDSLPGWGQGTLVTVSS | 77.1 | 0.00309 | 42500
13 | TIGIT-SC25 (Fc fusion, VHH-Fc fusion in assay) VHH: EVQLVESGGGLVQPGGSLRLSCAASGNTFSGGFMGWFRQAPGKEREWVASVLRGGYTWYADSVKGRFTISADNSKNTAYLQMNSLKPEDTAVYYCTTVGYGDYWGQGTLVTVSS | 22.5 | 0.00174 | 77200
14 | TIGIT-SC42 (Fc fusion, VHH-Fc fusion in assay) VHH: EVQLVESGGGLVQPGGSLRLSCAASGNTFSGGFMGWFRQAPGKEREWVATVLRGGYTWYADSVKGRFTISADNSKNTAYLQMNSLKPEDTAVYYCASGGFLASWGQGTLVTVSS | 1400 | 0.197 | 141000
15 | TIGIT-SC191 (Fc fusion, VHH-Fc fusion in assay) VHH: EVQLVESGGGLVQPGGSLRLSCAASGFVFSSDWMGWFRQAPGKEREWVASVLRGGYTWYADSVKGRFTISADNSKNTAYLQMNSLKPEDTAVYYCARGDSMDVWGQGTLVTVSS | 401 | 0.125 | 313000
16 | TIGIT-SC200 (Fc fusion, VHH-Fc fusion in assay) VHH: EVQLVESGGGLVQPGGSLRLSCAASGNTFSGGFMGWFRQAPGKEREWVASVLRGGYTWYADSVKGRFTISADNSKNTAYLQMNSLKPEDTAVYYCTRDGGFDPWGQGTLVTVSS | 5.34 | 0.00143 | 290000
17 | TIGIT-SC171 (Fc fusion, VHH-Fc fusion in assay) VHH: EVQLVESGGGLVQPGGSLRLSCAASGFTFDRSWMGWFRQAPGKEREWVASVLRGGYTWYADSVKGRFTISADNSKNTAYLQMNSLKPEDTAVYYCATERRLGVWGQGTLVTVSS | 51 | 0.00441 | 90200
18 | TIGIT-SC201 (Fc fusion, VHH-Fc fusion in assay) VHH: EVQLVESGGGLVQPGGSLRLSCAASGFTFSPSWMGWFRQAPGKEREWVASVLRGGYTWYADSVKGRFTISADNSKNTAYLQMNSLKPEDTAVYYCTRDGGFDPWGQGTLVTVSS | 1590 | 0.000901 | 567
19 | TIGIT-SC198 (Fc fusion, VHH-Fc fusion in assay) VHH: EVQLVESGGGLVQPGGSLRLSCAASGFTFSPSWMGWFRQAPGKEREYVASVLRGGYTWYADSVKGRFTISADNSKNTAYLQMNSLKPEDTAVYYCASEGDPDYWGQGTLVTVSS | 27.6 | 0.00285 | 103000
20 | TIGIT-SC195 (Fc fusion) VHH: EVQLVESGGGLVQPGGSLRLSCAASGFAFSSDWMGWFRQAPGKEREWVASVLRGGYTWYADSVKGRFTISADNSKNTAYLQMNSLKPEDTAVYYCARGEGFDYWGQGTLVTVSS | 478 | 0.142 | 296000
21 | TIGIT-SC203 (Fc fusion, VHH-Fc fusion in assay) VHH: EVQLVESGGGLVQPGGSLRLSCAASGFTFSPSWMGWFRQAPGKEREWVASVLRGGYTWYADSVKGRFTISADNSKNTAYLQMNSLKPEDTAVYYCARDRGGSDWGQGTLVTVSS | 914 | 0.14 | 153000
22 | TIGIT-SC117 (Fc fusion, VHH-Fc fusion in assay) VHH: EVQLVESGGGLVQPGGSLRLSCAASGNTFSGGFMGWFRQAPGKEREWVASVLRGGYTWYADSVKGRFTISADNSKNTAYLQMNSLKPEDTAVYYCDAADYWGQGTLVTVSS | 9.63 | 0.0012 | 125000
23 | TIGIT-SC115 (Fc fusion, VHH-Fc fusion in assay) VHH: EVQLVESGGGLVQPGGSLRLSCAASGNTFSGGFMGWFRQAPGKEREWVASVLRGGYTWYADSVKGRFTISADNSKNTAYLQMNSLKPEDTAVYYCAGTGLWGQGTLVTVSS | 8.42 | 0.00241 | 262000
24 | TIGIT-SC57 (Fc fusion, VHH-Fc fusion in assay) VHH: EVQLVESGGGLVQPGGSLRLSCAASGNTFSGGFMGWFRQAPGKEREWVASVLRGGYTWYADSVKGRFTISADNSKNTAYLQMNSLKPEDTAVYYCTTYRGWGQGTLVTVSS | 25.2 | 0.00511 | 149000
25 | TIGIT-SC116 (Fc fusion, VHH-Fc fusion in assay) VHH: EVQLVESGGGLVQPGGSLRLSCAASGFTFSPSWMGWFRQAPGKEREWVASVLRGGYTWYADSVKGRFTISADNSKNTAYLQMNSLKPEDTAVYYCDAADYWGQGTLVTVSS | 4.08 | 0.000696 | 209000
26 | TIGIT-SC13 (Fc fusion, VHH-Fc fusion in assay) VHH: EVQLVESGGGLVQPGGSLRLSCAASGRTFSFMGWFRQAPGKEREWVASVLRGGYTWYADSVKGRFTISADNSKNTAYLQMNSLKPEDTAVYYCATESMDYWGQGTLVTVSS | 3.08 | 0.000199 | 60100
27 | TIGIT-SC84 (Fc fusion, VHH-Fc fusion in assay) VHH: EVQLVESGGGLVQPGGSLRLSCAASGGTFTIYPMGWFRQAPGKEREWVAGINEYGGRYADSVKGRFTISADNSKNTAYLQMNSLKPEDTAVYYCARDLNAMGDAYDIWGQGTLVTVSS | ≤ 3.15 | ≤ 1e-05 | 3180
28 | TIGIT-SC51 (Fc fusion, VHH-Fc fusion in assay) VHH: EVQLVESGGGLVQPGGSLRLSCAASGRTEANYAMGWFRQAPGKEREFVAAISWDGGATAYADSVKGRFTISADNSKNTAYLQMNSLKPEDTAVYYCGDYEGHWGQGTLVTVSS | 5.15 | 0.00981 | 2.1e+06
29 | TIGIT-SC68 (Fc fusion, VHH-Fc fusion in assay) VHH: EVQLVESGGGLVQPGGSLRLSCAASGHTFRGYAMGWFRQAPGKEREAVAAISWSGDNTYYADSVKGRFTISADNSKNTAYLQMNSLKPEDTAVYYCGDYEGHWGQGTLVTVSS | 5.49 | 0.0103 | 1.87e+06
